The source of these data is publication PMC10796322, “Molecular switching in transcription through splicing and proline-isomerization regulates stress responses in plants” (Nature Communications, 2024).

The Kd is a measure of binding affinity in units of concentration. What is called stoichiometry N is a count of units in the complex or per binding partner. One may read the koff as the first-order rate constant of dissociation. Read a low koff as slow dissociation. For orientation: kon means a measure of how fast the partners come together.

First the molecules themselves.
T1: DREB2A_(151-335) (Arabidopsis thaliana, UniProt O82132 151-335)
T1 construct: also called C-terminal intrinsically disordered region (IDR) of DREB2A; source: E. coli BL21 DE3, purified (glutathione Sepharose, TEV cleavage, SEC); not shown: GST, N-terminal, cleaved
T1 sequence (looked up): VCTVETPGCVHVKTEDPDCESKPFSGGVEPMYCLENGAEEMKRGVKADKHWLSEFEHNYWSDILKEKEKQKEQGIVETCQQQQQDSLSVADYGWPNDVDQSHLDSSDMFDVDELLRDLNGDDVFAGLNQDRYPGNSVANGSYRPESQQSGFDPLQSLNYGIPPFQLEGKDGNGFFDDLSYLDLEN

T2: Med25-ACID R568A (Arabidopsis thaliana, UniProt Q7XYY2 532-680, R568A)
T2 construct: Mediator complex subunit 25 (Med25), Arabidopsis thaliana, AT1G25540, ACID domain construct with Arg568 in loop L1 replaced by alanine; the only Med25-ACID construct described is 532-680; source: E. coli BL21 DE3, purified (glutathione Sepharose, TEV cleavage, cation exchange, SEC); not shown: GST, N-terminal, cleaved
T2 sequence (looked up): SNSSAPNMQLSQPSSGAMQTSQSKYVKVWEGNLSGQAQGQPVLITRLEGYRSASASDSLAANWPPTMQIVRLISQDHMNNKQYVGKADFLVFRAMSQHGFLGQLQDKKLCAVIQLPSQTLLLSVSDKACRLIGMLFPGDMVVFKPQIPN

T3: Med25-ACID_(532-680), activator interaction domain (ACID) of mediator complex subunit 25 (Arabidopsis thaliana, UniProt Q7XYY2 532-680)
T3 chain: T2 sequence (looked up) with A37R

B1: Med25-ACID_(532-680), activator interaction domain (ACID) of mediator complex subunit 25 (domain or fragment, Arabidopsis thaliana, UniProt Q7XYY2 532-680, looked up)
chain: T2 sequence (looked up) with A37R
notes: 15N- or 13C,15N-labelled in the NMR titrations; unlabelled in ITC, CEST and stopped-flow; also called AtMed25-ACID; ACID domain; source: E. coli BL21 DE3, purified (glutathione Sepharose, TEV cleavage, cation exchange, SEC); not shown: GST, N-terminal, cleaved
B2: DREB2A_(234-276) (ABS-RIM) (domain or fragment, Arabidopsis thaliana, UniProt O82132 234-276, looked up)
chain: QDSLSVADYGWPNDVDQSHLDSSDMFDVDELLRDLNGDDVFAG
notes: 13C,15N-labelled in the CEST experiments; Populates cis (30 ± 1%) and trans Trp244-Pro245 isomers in the free state; also called bivalent ABS-RIM fragment; source: E. coli BL21 DE3, purified (glutathione Sepharose, TEV cleavage, SEC); not shown: GST, N-terminal, cleaved
B3: FITC-DREB2A_(234-256) synthetic peptide (peptide, UniProt O82132 234-256, looked up)
peptide: QDSLSVADYGWPNDVDQSHLDSS
modifications: also: FITC label, position not given here
notes: DREB2A, Arabidopsis thaliana, AT5G05410, residues 234-256; also called FITC-labeled ABS; source: synthetic peptide, bought: TAG Copenhagen A/S

Experiment [1] has as its target T4, Med25-ACID R568A (Arabidopsis thaliana, UniProt Q7XYY2, R568A).
T4 construct: Med25-ACID532-680 R568A, N-terminal GST tag removed by TEV protease
The conditions noted are these: SD, n = 2. The method, then:
To validate the proposed binding groove, we introduced an alanine in L1, replacing Arg568, which experienced a large CSP upon DREB2A binding, and determined the binding affinity using ITC with the high-affinity ABS-RIM fragment (DREB2A234-276, Fig. 1A). […] Thus, both NMR and thermodynamics supported the importance of the groove for the interaction with DREB2A.
ITC was performed on either a MicroCal ITC200 or a Malvern Pananalytical PEAQ-ITC. All ITC experiments were performed using a 50 mM HEPES pH 7.4, 100 mM NaCl and 0.5 mM tris(2-carboxyethyl)phosphine (TCEP) buffer. All experiments were performed using a ~ 1:10 cell to syringe protein concentration ratio. For high-affinity DREB2A fragments, the cell concentration was around 15 µM, while lower-affinity interaction experiments used higher concentrations. Samples were degassed by centrifuging at 20,000 x g for 20 minutes at experimental temperature. For three DREB2A fragments, experiments were performed over a range of temperatures to determine the ΔCp. Reported thermodynamic parameters are given at 25 °C. Data were analyzed using Origin and inhouse scripts using the one-set-of-sites model as documented by MicroCal and Origin. Dilution heats were fitted using an offset parameter. Most experiments were performed using a 0.5 µl initial injection, which was discarded in the analysis, followed by 18 injections of 2.0 µl. […]

A further experiment addresses T5, Med25-ACID (Arabidopsis thaliana, UniProt Q7XYY2).
T5 construct: Med25-ACID532-680 (AT1G25540), expressed in E. coli with N-terminal GST tag removed by TEV protease
The note with it: SD. The protocol: All protein fragments were produced with an N-terminal Glutathione-S-transferase (GST) tag which was removed using Tobacco Etch Virus (TEV) protease and expressed from E.coli BL21 DE3 cells. DREB2A (AT5G05410) variants were expressed at 37 °C for three hours. The DREB2A splice variant (AT5G05410.2) was based on GenBank ID CD530293[21]. Due to stability and aggregation considerations, Med25-ACID (AT1G25540) was expressed with additional N-terminal residues. Expression of Med25-ACID532-680 was induced at high OD (0.8-1.0) and cultured overnight at 18 °C. Cells were resuspended in 20 mM Tris-HCl pH 8.0, 100 mM NaCl lysis buffer and sonicated. The lysate was incubated with glutathione Sepharose for one hour and washed using the lysis buffer. Aliquots of 5 mL resin were resuspended in 20 mL of lysis buffer with 5 mM dithiothreitol (DTT) and 1 mM EDTA and the protein was cleaved overnight at 4 °C using TEV protease. For DREB2A, cleaved protein was freeze-dried and buffer-changed to experimental buffer using size exclusion chromatography. Med25-ACID was further purified using cation exchange (Source 15 S) at pH 8.5 and the buffer was changed using size exclusion chromatography (Superdex S75 10/300 GL). Isotope-labeled proteins were produced by growing the initial culture in lysogenic broth and transferring to half volume M9 minimal media 30 min before induction.
ITC was performed on either a MicroCal ITC200 or a Malvern Pananalytical PEAQ-ITC. All ITC experiments were performed using a 50 mM HEPES pH 7.4, 100 mM NaCl and 0.5 mM tris(2-carboxyethyl)phosphine (TCEP) buffer. All experiments were performed using a ~ 1:10 cell to syringe protein concentration ratio. For high-affinity DREB2A fragments, the cell concentration was around 15 µM, while lower-affinity interaction experiments used higher concentrations. Samples were degassed by centrifuging at 20,000 x g for 20 minutes at experimental temperature. For three DREB2A fragments, experiments were performed over a range of temperatures to determine the ΔCp. Reported thermodynamic parameters are given at 25 °C. Data were analyzed using Origin and inhouse scripts using the one-set-of-sites model as documented by MicroCal and Origin. Dilution heats were fitted using an offset parameter. Most experiments were performed using a 0.5 µl initial injection, which was discarded in the analysis, followed by 18 injections of 2.0 µl.

The next experiment has as its target T6, RCD1-RST (Arabidopsis thaliana, UniProt Q8RY59).
T6 construct: RCD1-RST
The note with it: cited from earlier work. An excerpt:
However, alternative splicing of DREB2A will shortcut such regulatory fine-tuning of competition by removing the RIM, thereby eliminating RCD1 as a repressor while leaving AD2 available (Fig. 7B). This provides an obvious mechanism for functional switching in a transcriptional pathway.

The target in another experiment is T1, DREB2A_(151-335). Nature of the experiment: ITC; 25 °C; 50 mM HEPES pH 7.4, 100 mM NaCl, 0.5 mM TCEP; ~1:10 cell to syringe concentration ratio, cell around 15 µM for high-affinity fragments; one-set-of-sites model; which protein was in the cell is not stated. The note with it: both partners purified. (In ITC the heat of successive injections is recorded.)
In experiment [2] the target is T2, Med25-ACID R568A. The experiment is described as above. The note with it: both partners purified.
The target in experiment [3] is B1. The description is as above. The conditions noted are these: both partners purified.
For experiment [4], the target named is T3, Med25-ACID_(532-680), activator …. Nature of the experiment: NMR; cis proline isomer, 10 °C.
Experiment [5] has the same target. Nature of the experiment: cis proline isomer, 10 °C.
The target of experiment [6] is B1. Kind of experiment: CEST NMR; 15N- and 13C-CEST; 500 µM 13C,15N-labeled DREB2A(234-276) or 1 mM DREB2A(234-276,P245A) with about 5% molar ratio of unlabeled Med25-ACID(532-680); pH 6.1, 20 mM phosphate, 100 mM NaCl; 25 °C and 10 °C; isomer Kd values estimated from the bound fractions and the overall ITC affinity. The conditions noted are these: both partners purified.

Experiment [7] concerns the target T3, Med25-ACID_(532-680), activator …. Nature of the experiment: trans proline isomer, 10 °C.
Experiment [8] has the same target. Kind of experiment: NMR; trans proline isomer, 10 °C.
Experiment [9] concerns the target B1. Nature of the experiment: ITC; 25 °C; 50 mM HEPES pH 7.4, 100 mM NaCl, 0.5 mM TCEP; ~1:10 cell to syringe concentration ratio, cell around 15 µM for high-affinity fragments; one-set-of-sites model; which protein was in the cell is not stated. The note with it: both partners purified. The source holds these as a separate data set.
The target in experiment [10] is T3, Med25-ACID_(532-680), activator …. Nature of the experiment: stopped-flow, trans proline isomer, 10 °C.
Experiment [11] has the same target. Kind of experiment: stopped-flow, cis proline isomer, 10 °C.
Experiment [12] has the same target. Kind of experiment: stopped-flow, 10 °C.
The target of experiment [13] is B1. Nature of the experiment: stopped-flow fluorescence; FITC-DREB2A (50 nM 234-276 or 250 nM 234-256) mixed with increasing Med25-ACID(532-680), pseudo-first-order; dissociation by competitive displacement with unlabeled DREB2A; 50 mM HEPES pH 7.4, 100 mM NaCl, 1 mM DTT; Fig. 7 legend gives kinetic rate constants at 10 °C. The conditions noted are these: both partners purified.

In experiment [14] the target is T3, Med25-ACID_(532-680), activator …. Nature of the experiment: stopped-flow, 10 °C.

Changes are numbered by the printed parent chain. No end group written: not given here.

T6 sequence (Q8RY59 499-572): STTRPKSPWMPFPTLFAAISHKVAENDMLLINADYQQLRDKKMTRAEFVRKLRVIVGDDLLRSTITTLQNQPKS
T5 sequence (Q7XYY2 532-680): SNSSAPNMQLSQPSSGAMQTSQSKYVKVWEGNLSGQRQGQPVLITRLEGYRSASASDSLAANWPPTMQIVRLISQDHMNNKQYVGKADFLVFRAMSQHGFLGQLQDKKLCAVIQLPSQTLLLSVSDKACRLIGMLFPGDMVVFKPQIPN

With DREB2A195-276 [195–276], the Kd turned out to be 3100 nM on Med25-ACID R568A [1] and 450 ± 30 nM at Med25-ACID.
Regarding DREB2A (fragment borders not printed), the Kd on RCD1-RST is 12 nM.
For the molecule B1, the Kd with DREB2A_(151-335) stood at 540 nM.
Consider B2, for which the Kd worked out at 3100 ± 700 nM with Med25-ACID R568A [2]; 510 nM in experiment [3]; 110 nM in experiment [4]; 190 nM in experiment [8]; 520 ± 20 nM in experiment [9]. Further, the values for the dH (with Med25-ACID R568A [2]; in experiment [3]) were -11 ± 0.956 kcal/mol and -12.1 kcal/mol, respectively. For the same molecule, the “stoichiometry N” value is 0.9 ± 0.01 in the experiment with Med25-ACID R568A [2] and 0.98 in [3]. For the same molecule, the koff worked out at 6 s⁻¹ in experiment [5] and 24 s⁻¹ in [7]. Besides, the “KD of the cis-Pro245 isomer (estimated from CEST bound fractions and the ITC affinity)” value in [6] was 330 ± 20 nM. Besides, in experiment [6], the “KD of the trans-Pro245 isomer (estimated from CEST bound fractions and the ITC affinity)” value was 640 ± 30 nM.
Regarding QDSLSVADYGWPNDVDQSHLDSSDMFDVDELLRDLNGDDVFAG (domain or fragment, also: FITC label, position not given here) [FITC-DREB2A_(234-276)], the koff amounted to 24 s⁻¹ in [10] and 6 s⁻¹ in [11].
In turn, B3 returned a Kd in experiment [12] of 1800 nM. Moreover, in [13], the kon turned out to be 2.9e+07 ± 1e+06 M⁻¹ s⁻¹. The off-rate (koff) in experiment [14] stood at 54 s⁻¹.
